Publication PMC10522483

Target: S. lophii 70S ribosome (Spraguea lophii (endogenous in spores))
Test: cryo-EM structure; electron cryo-tomography and subtomogram averaging of ribosomes in situ in polar tubes of spores germinated on the grid; dimer map 14.3 Å (C2 symmetry, 1,191 particles), half-dimer map 10.8 Å; single-particle atomic model fitted into the maps

percent of ribosome particles in 100S dimers: 80% | stoichiometry N: 2
Substance: S. lophii 70S ribosome (complex)
